Columns and labels:
[1] = SEC; preparative SEC on Superdex 200 10/300 GL after Strep-Tactin affinity chromatography; running buffer 20 mM Tris/HCl pH 8.0, 150 mM NaCl; changes of pH, salt and buffering agent, addition of calcium or EDTA had no influence on the monomer/dimer ratio
[2] = molecular target: SmuA(V465E), sucrose isomerase from Serratia plymuthica, produced in the cytoplasm of E. coli (Serratia plymuthica); test: as above
[3] = molecular target: SmuA(V465E), sucrose isomerase from Serratia plymuthica, produced in the periplasm of E. coli (Serratia plymuthica); test: as above

SmuA(V465E), sucrose isomerase from Serratia plymuthica, produced in the cytoplasm of E. coli
ratio of dimer to monomer (SEC peaks) [1]: a ratio of 3 : 1

SmuA(V465E), sucrose isomerase from Serratia plymuthica, produced in the cytoplasm of E. coli (enzyme)
stoichiometry N [2]: 2

SmuA(V465E), sucrose isomerase from Serratia plymuthica, produced in the periplasm of E. coli
ratio between monomer and dimer (SEC peaks) [1]: the ratio between monomer and dimer to 10 : 1

SmuA(V465E), sucrose isomerase from Serratia plymuthica, produced in the periplasm of E. coli (enzyme)
stoichiometry N [3]: 2
